Experimental data: the RNAGym collection of RNA variant scans (doi:10.1073/pnas.2313332121)
Variants at the floor of the assay were thinned out.

B1: TPR 5TU (parent)
chain: GGAUCUUCUCGAUCUAACAAAAAAGACAAAUCUGCCACAAAGCUUGAGAGCAUCUUCGGAUGCAGAGGCGGCAGCCUUCGGUGGCGCGAUAGCGCCAACGUUCUCAACUAUGACACGCAAAACGCGUGCUCCGUUGAAUGGAGUUUAUCAUG

Variants of: B1
Experiment: polymerase ribozyme fitness, log enrichment relative to wild type (log ratio); higher = more active; in vitro selection for triplet polymerase activity
Procedure, shortened: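 Mutant libraries for each subunit of a heterodimeric triplet polymerase ribozyme were made by PCR and then transcribed. Each library underwent one round of in vitro selection in triplicate: annealing with a biotinylated primer, the partner subunit and triplets, frozen incubation at −7 °C, gel excision of extended constructs, streptavidin-bead capture and RT-PCR. Input and output libraries were Illumina-sequenced, and only genotypes with ≥10 input reads and ≥1 read per output were kept. Fitness is the logarithm, base 2, of genotype enrichment over wild-type enrichment, computed from inverse-variance-weighted replicate averages.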

Variant	polymerase ribozyme fitness (log ratio)
U4A A12U G84A A89G	-0.965
U4C G25U C79A C93G U111C	≤ -4.2
C5G C14G A49G	-3.17
C5A A26G C36A C96A	≤ -4.2
U6A A41C G50C G84A A119G	-3.27
U6A U13G C96A C105U	-2.15
C5G A23C A66G C69U A91G C105G A120U	≤ -4.2
U4G A24C G84U G86U C108U A122G U151C	≤ -4.2
U4C A23C A37G U53A	≤ -4.2
C5U A47G C79A A138G	≤ -4.2
U4C C38G G59A U61A U148C	≤ -4.2
C5U A22C G83C C93U U101G C116A	-2.06
U4A G92U	-0.358
U4C C85A	-1.34
C5U U45A A47C G62U C69U	≤ -4.2
U4G G11C U44G	≤ -4.2
C5U A91U	-3.99
C5A A24C G48U G65C C87U C99U A121G	≤ -4.2
C5G U55A G70C C85A C96U U151G	≤ -4.2
U4A A21G U55G U101G G152A	≤ -4.2
U4G G42C C76G U90C C93G A113C	≤ -4.2

Variant	polymerase ribozyme fitness (log ratio)
C5A G11A G84A C95A C103U C116U	-1.5
C5U U9C A29C C93U C103U G126U	≤ -4.2
C5G A39U C57A G59U G83U C103G C116U	≤ -4.2
C5U A47C G59A C87U C93U	-3.16
C5G C93A	-2.55
C5G C76U	-0.335
U6A U15G A16U G74A U82G C95U	≤ -4.2
A3U U13C A41U C76U C123U	-2.89
U6A C14U A41U G48U	-3.87
U6A A17U G65A G83A G84U C87A G100A G141A	≤ -4.2
U4G C27G A40U C116G A137C	≤ -4.2
C5G U7A C93U A106C	-3.03
C5A C76U G84U C125U G141U	-3.64
U4G G58A	0.794
U6A U13A U61A C76A A91G	≤ -4.2
C5U C85G	-1.7
C5G A147C	-0.562
C5G A20C	-0.472
C5G C32A C57U C99U	≤ -4.2
C5G C10G A26C C93U A106G G140U	≤ -4.2
C5U A20U C57U G68A C72U G92A	≤ -4.2

Variant	polymerase ribozyme fitness (log ratio)
C5U G46A A52G C85U A107U C118A A137U	≤ -4.2
C5A C27U U33G C79A	≤ -4.2
C5G U15A U45G U82C G92A A150U	≤ -4.2
C5G A49G U61A C85G	≤ -4.2
U4C A16U G83U U90C A113U U148C	≤ -4.2
C5U C38G C57U G84U A106C	-3
C5G A24U G81C	-0.313
U4A A22U A40G U145A	-3.05
U4G C35G C95G U134A G136U	-4.16
C5A A16G G50U C51A A89U U134G A137G G140A A142C A147C	≤ -4.2
U6A G50C A52C	≤ -4.2
C5G A16U C43G C93G A106U A107U	≤ -4.2
U4A C8G U13G A24C C96U	≤ -4.2
C5A A21G A41C A64U C85A C96U A110U G117U	≤ -4.2
C5G A41C G46C C57G A60U G68C U135A G141A	≤ -4.2
A3U U55A G84A	-0.911
U4G A73C G92C	-4.15
U6A A16C A20G G62C A91U A110U	≤ -4.2
C5A A20C C96U	-0.294
U4C U56G C63U C93G	-3.11
U4A U6A A17U A30U C105U U134G	≤ -4.2

Variant	polymerase ribozyme fitness (log ratio)
C5A A20G A22C C35A U77G C87A A115C G124C	≤ -4.2
U4A C8G U53G G71U A73G C79G C85G C87A G88U G92U A115G	≤ -4.2
C5U A17G A49G U53G C85A A122C G141C	≤ -4.2
U4A C38U A41U G59A A137U	-4.07
U6A U13A C35G A110G A142G	-3.55
U4C G50C U56A G74A C87A G88U C116U	≤ -4.2
U4C A52U U82G C96A	-3.56
U6A A39U U101G C118G	≤ -4.2
C5U U55G C79G C87A A97U A106C	≤ -4.2
C5G U6G U7G C14G A28C A30C G50C C51G A89G C93G G94U C105U C116U G143U	≤ -4.2
C5G C8U A12U C27G G59C A66G U78C U101A C125G C131A U139C	-3.97
C5U G141C	-0.459
U4G U31A C54U G86C G92U U148G	≤ -4.2
U4A A24U C57A C93U G94U G141U	-2.67
C5G A30U G59A C87G C108U U148A	≤ -4.2
C5U A22U C85A U135A	-0.0168
U4C U7G C87A G100A U101A	≤ -4.2
A3U U15G A19C A39C U44G U55A C57U A60G C63A G84A A110U A120C	≤ -4.2
C5U C38U C85G U101C	-1.38
C5U U13A A17C C27G A28U A52C C85U A113C U127A U144G	≤ -4.2
